Legend:
[1] = target: xenavidin (Xenopus tropicalis); experiment: SEC; Superdex 200 10/300 GL, 50 mM sodium phosphate pH 7.0, 650 mM NaCl; samples with and without an excess of biotin
[2] = target: xenavidin (Xenopus tropicalis); experiment: crystal structure; sitting-drop vapour diffusion at 22°C, with and without D-biotin; space group R32, dimer in the asymmetric unit; 1.7 Å
[3] = target: xenavidin, acetylated in vitro (Xenopus tropicalis); experiment: SDS-PAGE thermostability assay; acetylated protein saturated with biotin, thermal treatment for 20 min in the presence of SDS and 2-mercaptoethanol, SDS-PAGE with Coomassie staining

Row | stoichiometry N [1] | stoichiometry N [2] | stoichiometry N [3] | Substance
1 | 4 | 4 |  | xenavidin (natural protein)
2 |  |  | 4 | xenavidin, acetylated in vitro (natural protein)

From publication PMC2761383, “Structural and functional characteristics of xenavidin, the first frog avidin from Xenopus tropicalis” (BMC Structural Biology, 2009)
